Substitutions are numbered along the chain they refer to. In names and notes the source's numbering stands.
System: engineered chimeric receptor SEQ ID NO: 33 and its mutants (human α7-nAChR ligand binding domain / human GlyRα1 ion pore domain) in Lenti-X 293T cells
Assay: YFP fluorescence quenching anion reporter plate reader assay (percent quench, EC50)
Format: cell-based
Details: for YFP fluorescence quenching using CNL001 (percent quench): receptor named in row; for YFP fluorescence quenching using Facinicline, 30 nM fac: ligand Facinicline 30 nM; for YFP fluorescence quenching using Facinicline, 300 nM fac: ligand Facinicline 300 nM; for YFP fluorescence quenching using Facinicline, 30 uM fac: ligand Facinicline 30 uM; for YFP fluorescence quenching using TC-6987, 1 uM tc6987: ligand TC-6987 1 uM; for YFP fluorescence quenching using TC-6987, 10 uM tc6987: ligand TC-6987 10 uM; for YFP fluorescence quenching using TC-6987, 500 uM tc6987: ligand TC-6987 500 uM; for YFP fluorescence quenching using Varenicline, 3 nM var: ligand Varenicline 3 nM; for YFP fluorescence quenching using Varenicline, 30 nM var: ligand Varenicline 30 nM; for YFP fluorescence quenching using Varenicline, 300 nM var: ligand Varenicline 300 nM; for YFP fluorescence quenching using Varenicline, 500 nM var: ligand Varenicline 500 nM; for YFP fluorescence quenching using Varenicline, 1 uM var: ligand Varenicline 1 uM
From the text: To screen these mutant LGICs for those having novel response profiles to ligands, an anion reporter assay was developed to assess the function of the LGICs in a high throughput format. In this assay, cells expressing a YFP reporter whose fluorescence is quenched in the presence of anion are transfected with DNA encoding the channel of interest. Upon exposure to ligand, channels that are activated will flux anion, resulting in a dose-dependent quench of the YFP that can be detected on a plate reader. The greater the quench signal (i.e., the more positive the value), the higher the ligand activity on the receptor is.
Lenti-X 293T cells (LX293T, Clontech) were maintained in DMEM containing 10% FBS and 1% penicillin/streptomycin (Invitrogen). […] Two days before assay, cells were split at a density of 20,000 cells/well in a 96-well tissue culture plate coated with poly-d lysine (Thermo Scientific). The next day, the cells were transiently transfected with 0.1 μg of DNA per well using standard Fugene protocol (Promega). On the day of assay, cells were washed 2 times in 1X extracellular solution (1X ECS: 140 mM NaCl, 5 mM KCl, 1 mM MgCl2, 2 mM CaCl2, 10 mM HEPES, 10 mM glucose, pH 7.2, mOsms 300). After the last wash, 100 μL of 1X ECS was added to the wells and the plate was incubated at 37° C. for 30 min. While incubating the plate, the drugs were diluted to a 2X concentration in 1X ECS-Nal (same components as 1X ECS except the 140 mM NaCl was replaced by 140 mM Nal). The plates were then read on a Flexstation3 (Molecular Devices). Each well, 8 wells at a time, of the plate is read for 2 min using a Flexstation3 (Molecular Devices) as follows: 1) a baseline YFP fluorescence is read for 17 sec, 2) 100 μL of ligand is added, and 3) the changes in YFP fluorescence are then measured every 1.3 sec for 1 minute and 43 seconds. The percent quench is calculated from the average fluorescence of the last 10 seconds of the read divided by the baseline average of the first 15 seconds prior to the ligand addition.
FIGS. 1A-1J provide heat maps of the percent quench of YFP fluorescence following stimulation by various doses of either acetylcholine or the non-native ligand as indicated in the Figures. CODA71 (SEQ ID NO: 33) was used as a control, and CODA75 (SEQ ID NO: 29, a non-responding chimeric engineered receptor) was used as the negative control. Quenching of the fluorescence signal, as indicated by blue shaded cells, indicate the level of engineered receptor activation by the non-native ligand at that concentration.

[1] = 1 nM CNL001, first column so headed
[2] = 1 nM CNL001, second column so headed
[3] = 3 nM brd (TC-5619/Bradanicline)
[4] = 10 nM CNL001, first column so headed
[5] = 10 nM CNL001, second column so headed
[6] = 30 nM brd (TC-5619/Bradanicline)
[7] = 50 nM CNL001, first column so headed
[8] = 50 nM CNL001, second column so headed
[9] = 100 nM CNL001, first column so headed
[10] = 100 nM CNL001, second column so headed
[11] = 300 nM brd (TC-5619/Bradanicline)
[12] = 1 uM CNL001, first column so headed
[13] = 1 uM CNL001, second column so headed

B1: CODA236: engineered receptor: R101F in SEQ ID NO: 33 (protein)
chain: MRCSPGGVWLALAASLLHVSLQGEFQRKLYKELVKNYNPLERPVANDSQPLTVYFSLSLLQIMDVDEKNQVLTTNIWLQMSWTDHYLQWNVSEYPGVKTVFFPDGQIWKPDILLYNSADERFDATFHTNVLVNSSGHCQYLPPGIFKSSCPMDLKNFPMDVQTCKLKFGSWSYGGWSLDLQMQEADISGYIPNGEWDLVGIPGKRSERFYECCKEPYPDVTFTVTMRRRMGYYLIQMYIPSLLIVILSWISFWINMDAAPARVGLGITTVLTMTTQSSGSRASLPKVSYVKAIDIWMAVCLLFVFSALLEYAAVNFVSRQHKELLRFRRKRRHHKSPMLNLFQEDEAGEGRFNFSAYGMGPACLQAKDGISVKGANNSNTTNPPPAPSKSPEEMRKLFIQRAKKIDKISRIGFPMAFLIFNMFYWIIYKIVRREDVHNQ
modifications: synthetic sequence of chimeric LGIC
[1]
  YFP fluorescence quenching using CNL001 (percent quench): 9.048%
[2]
  YFP fluorescence quenching using CNL001 (percent quench): 26.601%
[3]
  YFP fluorescence quenching using TC-5619/Bradanicline (percent quench): 49.33%
[4]
  YFP fluorescence quenching using CNL001 (percent quench): 71.533%
[5]
  YFP fluorescence quenching using CNL001 (percent quench): 72.948%
[6]
  YFP fluorescence quenching using TC-5619/Bradanicline (percent quench): 77.38%
[7]
  YFP fluorescence quenching using CNL001 (percent quench): 75.895%
[8]
  YFP fluorescence quenching using CNL001 (percent quench): 74.238%
50 nM abt (ABT-126)
  YFP fluorescence quenching using ABT-126 (percent quench): −18.69%
[9]
  YFP fluorescence quenching using CNL001 (percent quench): 76%
[10]
  YFP fluorescence quenching using CNL001 (percent quench): 75.861%
100 nM CNL002
  YFP fluorescence quenching (percent quench): −9.56%
100 nM abt (ABT-126)
  YFP fluorescence quenching using ABT-126 (percent quench): −23.01%
100 nM azd0328
  YFP fluorescence quenching using AZD-0328 (percent quench): −9.78%
300 nM abt (ABT-126)
  YFP fluorescence quenching using ABT-126 (percent quench): −20.92%
300 nM azd0328
  YFP fluorescence quenching using AZD-0328 (percent quench): 49.64%
[11]
  YFP fluorescence quenching using TC-5619/Bradanicline (percent quench): 77.51%
[12]
  YFP fluorescence quenching using CNL001 (percent quench): 76.367%
[13]
  YFP fluorescence quenching using CNL001 (percent quench): 76.162%
1 uM CNL002
  YFP fluorescence quenching (percent quench): 56.9%
1 uM abt (ABT-126)
  YFP fluorescence quenching using ABT-126 (percent quench): 4.99%
10 uM ach (acetylcholine)
  YFP fluorescence quenching (percent quench): −18.24%
30 uM CNL002
  YFP fluorescence quenching (percent quench): 70.28%
30 uM azd0328
  YFP fluorescence quenching using AZD-0328 (percent quench): 81.14%
100 uM ach (acetylcholine)
  YFP fluorescence quenching (percent quench): 60%
1 mM ach (acetylcholine)
  YFP fluorescence quenching (percent quench): 66.07%
3 mM ach (acetylcholine)
  YFP fluorescence quenching (percent quench): 71.38%
  YFP fluorescence quenching using Facinicline, 30 nM fac: −28.54
  YFP fluorescence quenching using Facinicline, 300 nM fac: 72.98
  YFP fluorescence quenching using Facinicline, 30 uM fac: 87.6
  YFP fluorescence quenching using TC-6987, 1 uM tc6987: 45.34
  YFP fluorescence quenching using TC-6987, 10 uM tc6987: 70.04
  YFP fluorescence quenching using TC-6987, 500 uM tc6987: 75.86
First column
  YFP fluorescence quenching using Varenicline, 3 nM var: 19.949
  YFP fluorescence quenching using Varenicline, 30 nM var: 15.764
  YFP fluorescence quenching using Varenicline, 300 nM var: 23.135
  YFP fluorescence quenching using Varenicline, 500 nM var: 35.048
  YFP fluorescence quenching using Varenicline, 1 uM var: 71.031
Second column
  YFP fluorescence quenching using Varenicline, 3 nM var: 22.334
  YFP fluorescence quenching using Varenicline, 30 nM var: 16.213
  YFP fluorescence quenching using Varenicline, 300 nM var: 22.987
  YFP fluorescence quenching using Varenicline, 500 nM var: 34.188
  YFP fluorescence quenching using Varenicline, 1 uM var: 71.005

B2: CODA237: engineered receptor: R101M in SEQ ID NO: 33 (protein)
chain: B1 chain with F101M
modifications: synthetic sequence of chimeric LGIC
[1]
  YFP fluorescence quenching using CNL001 (percent quench): −2.114%
[2]
  YFP fluorescence quenching using CNL001 (percent quench): −5.079%
[3]
  YFP fluorescence quenching using TC-5619/Bradanicline (percent quench): −14.87%
[4]
  YFP fluorescence quenching using CNL001 (percent quench): 15.096%
[5]
  YFP fluorescence quenching using CNL001 (percent quench): 50.554%
[6]
  YFP fluorescence quenching using TC-5619/Bradanicline (percent quench): 69.93%
[7]
  YFP fluorescence quenching using CNL001 (percent quench): 66.585%
[8]
  YFP fluorescence quenching using CNL001 (percent quench): 74.462%
50 nM abt (ABT-126)
  YFP fluorescence quenching using ABT-126 (percent quench): −24.34%
[9]
  YFP fluorescence quenching using CNL001 (percent quench): 78%
[10]
  YFP fluorescence quenching using CNL001 (percent quench): 77.411%
100 nM CNL002
  YFP fluorescence quenching (percent quench): −8.68%
100 nM abt (ABT-126)
  YFP fluorescence quenching using ABT-126 (percent quench): −20.22%
100 nM azd0328
  YFP fluorescence quenching using AZD-0328 (percent quench): −17.84%
300 nM abt (ABT-126)
  YFP fluorescence quenching using ABT-126 (percent quench): −20.57%
300 nM azd0328
  YFP fluorescence quenching using AZD-0328 (percent quench): −11.98%
[11]
  YFP fluorescence quenching using TC-5619/Bradanicline (percent quench): 76.57%
[12]
  YFP fluorescence quenching using CNL001 (percent quench): 79.06%
[13]
  YFP fluorescence quenching using CNL001 (percent quench): 79.162%
1 uM CNL002
  YFP fluorescence quenching (percent quench): −2.24%
1 uM abt (ABT-126)
  YFP fluorescence quenching using ABT-126 (percent quench): −19.55%
10 uM ach (acetylcholine)
  YFP fluorescence quenching (percent quench): −16.79%
30 uM CNL002
  YFP fluorescence quenching (percent quench): 66.99%
30 uM azd0328
  YFP fluorescence quenching using AZD-0328 (percent quench): 81.2%
100 uM ach (acetylcholine)
  YFP fluorescence quenching (percent quench): −18.63%
1 mM ach (acetylcholine)
  YFP fluorescence quenching (percent quench): 46.28%
3 mM ach (acetylcholine)
  YFP fluorescence quenching (percent quench): 69.31%
  YFP fluorescence quenching using Facinicline, 30 nM fac: −24.14
  YFP fluorescence quenching using Facinicline, 300 nM fac: −14.38
  YFP fluorescence quenching using Facinicline, 30 uM fac: 88.78
  YFP fluorescence quenching using TC-6987, 1 uM tc6987: −21.62
  YFP fluorescence quenching using TC-6987, 10 uM tc6987: 21.52
  YFP fluorescence quenching using TC-6987, 500 uM tc6987: 60.33
First column
  YFP fluorescence quenching using Varenicline, 3 nM var: 18.429
  YFP fluorescence quenching using Varenicline, 30 nM var: 23.07
  YFP fluorescence quenching using Varenicline, 300 nM var: 18.819
  YFP fluorescence quenching using Varenicline, 500 nM var: 19.117
  YFP fluorescence quenching using Varenicline, 1 uM var: 24.525
Second column
  YFP fluorescence quenching using Varenicline, 3 nM var: 16.83
  YFP fluorescence quenching using Varenicline, 30 nM var: 15.868
  YFP fluorescence quenching using Varenicline, 300 nM var: 19.155
  YFP fluorescence quenching using Varenicline, 500 nM var: 22.593
  YFP fluorescence quenching using Varenicline, 1 uM var: 23.383
